T1: MepM (E. coli, UniProt P0AFS9 41-440)
T1 sequence (looked up): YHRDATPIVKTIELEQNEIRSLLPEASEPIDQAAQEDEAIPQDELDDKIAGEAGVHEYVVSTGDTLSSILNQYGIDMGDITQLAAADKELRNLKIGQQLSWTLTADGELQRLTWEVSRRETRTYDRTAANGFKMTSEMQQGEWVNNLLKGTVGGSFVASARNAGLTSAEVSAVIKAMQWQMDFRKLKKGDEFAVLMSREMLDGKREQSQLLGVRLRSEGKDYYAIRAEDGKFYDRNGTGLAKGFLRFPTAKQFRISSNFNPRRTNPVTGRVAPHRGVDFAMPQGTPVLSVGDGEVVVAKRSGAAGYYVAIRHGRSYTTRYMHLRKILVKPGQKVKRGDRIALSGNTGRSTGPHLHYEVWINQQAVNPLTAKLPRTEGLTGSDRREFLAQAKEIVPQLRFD

T2: PBP1A (E. coli, UniProt P02918 1-850, NT647 RED-NHS dye on amines (fl-PBP1A))
T2 sequence (looked up): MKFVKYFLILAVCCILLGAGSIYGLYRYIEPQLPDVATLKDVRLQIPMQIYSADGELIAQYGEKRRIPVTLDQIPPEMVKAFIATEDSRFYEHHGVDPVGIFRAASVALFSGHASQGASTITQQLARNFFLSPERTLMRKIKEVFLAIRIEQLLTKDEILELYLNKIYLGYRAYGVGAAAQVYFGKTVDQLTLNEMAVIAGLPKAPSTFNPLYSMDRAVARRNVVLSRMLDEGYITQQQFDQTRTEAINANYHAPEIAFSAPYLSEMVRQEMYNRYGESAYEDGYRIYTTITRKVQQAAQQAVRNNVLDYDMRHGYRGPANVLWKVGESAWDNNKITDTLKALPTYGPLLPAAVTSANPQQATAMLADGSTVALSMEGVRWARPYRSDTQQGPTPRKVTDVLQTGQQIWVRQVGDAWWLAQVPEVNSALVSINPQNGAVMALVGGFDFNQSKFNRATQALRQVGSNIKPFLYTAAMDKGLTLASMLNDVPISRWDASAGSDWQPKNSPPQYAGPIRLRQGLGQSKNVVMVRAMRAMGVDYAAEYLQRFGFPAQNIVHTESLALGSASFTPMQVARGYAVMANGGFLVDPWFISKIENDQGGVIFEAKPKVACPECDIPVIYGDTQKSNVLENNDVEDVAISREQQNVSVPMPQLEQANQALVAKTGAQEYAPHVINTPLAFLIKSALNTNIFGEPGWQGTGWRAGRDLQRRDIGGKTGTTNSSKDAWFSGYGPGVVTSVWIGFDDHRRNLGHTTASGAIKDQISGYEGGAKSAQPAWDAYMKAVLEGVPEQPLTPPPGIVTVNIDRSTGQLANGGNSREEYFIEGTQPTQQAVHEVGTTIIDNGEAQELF

B1: NlpI (soluble version, residues 19-294) (natural protein, E. coli, UniProt P0AFB1 19-294, looked up)
chain: CSNTSWRKSEVLAVPLQPTLQQEVILARMEQILASRALTDDERAQLLYERGVLYDSLGLRALARNDFSQALAIRPDMPEVFNYLGIYLTQAGNFDAAYEAFDSVLELDPTYNYAHLNRGIALYYGGRDKLAQDDLLAFYQDDPNDPFRSLWLYLAEQKLDEKQAKEVLKQHFEKSDKEQWGWNIVEFYLGNISEQTLMERLKADATDNTSLAEHLSETNFYLGKYYLSLGDLDSATALFKLAVANNVHNFVEHRYALLELSLLGQDQDDLAESDQQ
modifications: NT647 RED-NHS dye on amines where used as the labelled partner (fl-NlpI)
B2: PBP7 (enzyme, E. coli, UniProt P0AFI5 26-310, looked up)
chain: KTAAATTASQPEIASGSAMIVDLNTNKVIYSNHPDLVRPIASISKLMTAMVVLDARLPLDEKLKVDISQTPEMKGVYSRVRLNSEISRKDMLLLALMSSENRAAASLAHHYPGGYKAFIKAMNAKAKSLGMNNTRFVEPTGLSVHNVSTARDLTKLLIASKQYPLIGQLSTTREDMATFSNPTYTLPFRNTNHLVYRDNWNIQLTKTGFTNAAGHCLVMRTVINNKPVALVVMDAFGKYTHFADASRLRTWIETGKVMPVPAAALSYKKQKAAQMAAAGQTAQND
modifications: NT647 RED-NHS dye on amines where used as the labelled partner (fl-PBP7)
B3: His-PBP7 (enzyme, E. coli, UniProt P0AFI5 26-310, looked up)
chain: B2 chain
B4: tagless NlpI (natural protein)
chain: B1 chain
B5: MepS(C68A) (enzyme, E. coli, UniProt P0AFV4 27-188, looked up)
chain: CSANNTAKNMHPETRAVGSETSSLQASQDEFENLVRNVDVKSRIMDQYADWKGVRYRLGGSTKKGIDASGFVQRTFREQFGLELPRSTYEQQEMGKSVSRSNLRTGDLVLFRAGSTGRHVGIYIGNNQFVHASTSSGVIISSMNEPYWKKRYNEARRVLSRS
B6: PBP4 (native) (enzyme, E. coli, UniProt P24228 21-477, looked up)
chain: ANVDEYITQLPAGANLALMVQKVGASAPAIDYHSQQMALPASTQKVITALAALIQLGPDFRFTTTLETKGNVENGVLKGDLVARFGADPTLKRQDIRNMVATLKKSGVNQIDGNVLIDTSIFASHDKAPGWPWNDMTQCFSAPPAAAIVDRNCFSVSLYSAPKPGDMAFIRVASYYPVTMFSQVRTLPRGSAEAQYCELDVVPGDLNRFTLTGCLPQRSEPLPLAFAVQDGASYAGAILKDELKQAGITWSGTLLRQTQVNEPGTVVASKQSAPLHDLLKIMLKKSDNMIADTVFRMIGHARFNVPGTWRAGSDAVRQILRQQAGVDIGNTIIADGSGLSRHNLIAPATMMQVLQYIAQHDNELNFISMLPLAGYDGSLQYRAGLHQAGVDGKVSAKTGSLQGVYNLAGFITTASGQRMAFVQYLSGYAVEPADQRNRRIPLVRFESRLYKDIYQNN
B7: LpoA (natural protein, E. coli, UniProt P45464 27-678, looked up)
chain: CGTHTPDQSTAYMQGTAQADSAFYLQQMQQSSDDTRINWQLLAIRALVKEGKTGQAVELFNQLPQELNDAQRREKTLLAVEIKLAQKDFAGAQNLLAKITPADLEQNQQARYWQAKIDASQGRPSIDLLRALIAQEPLLGAKEKQQNIDATWQALSSMTQEQANTLVINADENILQGWLDLQRVWFDNRNDPDMMKAGIADWQKRYPNNPGAKMLPTQLVNVKAFKPASTNKIALLLPLNGQAAVFGRTIQQGFEAAKNIGTQPVAAQVAAAPAADVAEQPQPQTVDGVASPAQASVSDLTGEQPAAQPVPVSAPATSTAAVSAPANPSAELKIYDTSSQPLSQILSQVQQDGASIVVGPLLKNNVEELLKSNTPLNVLALNQPENIENRVNICYFALSPEDEARDAARHIRDQGKQAPLVLIPRSSLGDRVANAFAQEWQKLGGGTVLQQKFGSTSELRAGVNGGSGIALTGSPITLRATTDSGMTTNNPTLQTTPTDDQFTNNGGRVDAVYIVATPGEIAFIKPMIAMRNGSQSGATLYASSRSAQGTAGPDFRLEMEGLQYSEIPMLAGGNLPLMQQALSAVNNDYSLARMYAMGVDAWSLANHFSQMRQVQGFEINGNTGSLTANPDCVINRNLSWLQYQQGQVVPVS
modifications: NT647 RED-Maleimide dye on cysteines where used as the labelled partner (fl-LpoA)

How the values were obtained:
AUC = target: the molecule itself; assay: AUC
MepM = target: T1, MepM; assay: MST
MST = target: the molecule itself; assay: MST
PBP4 (native) [1] = target: B6; assay: MST
PBP1A = target: T2, PBP1A; assay: MST
PBP4 (native) [2] = target: B6; assay: pull-down
His-PBP7 = target: B3; assay: pull-down
[3] = target: preformed NlpI-PBP4 complex (E. coli, UniProt P0AFB1 19-294; P24228 21-477); assay: MST

In the case of B1, the “stoichiometry N” value (AUC) is reported as 2, the Kd (MepM) is reported as 0.152 µM and the Kd (MST) is reported as 0.126 µM. For the same binder, the Kd (PBP4 (native) [1]) was 0.177 µM.

With B2 the Kd (PBP1A) was 0.101 µM and the binding result (PBP4 (native) [1]) was “binds”.

B3: binds (PBP4 (native) [2]).

B4: binds (His-PBP7).

With B5 the Kd (PBP1A) was 0.091 µM.

B6 showed a Kd (PBP1A) of 0.106 µM.

B7: binds [3].
